Data published in the supplement of paper PMC12338614.
± gives the uncertainty stated by the source.

B1: library; numbered along this chain (parent)
chain: MEVVDPQQLGMFTEGELMSVGMDTFIHRIDSTEVIYQPRRKRAKLIGKYLMGDLLGEGSYGKVKEVLDSETLCRRAVKILKKKKLRRIPNGEANVKKEIQLLRRLRHKNVIQLVDVLYNEEKQKMYMVMEYCVCGMQEMLDSVPEKRFPVCQAHGYFCQLIDGLEYLHSQGIVHKDIKPGNLLLTTGGTLKISDLGVAEALHPFAADDTCRTSQGSPAFQPPEIANGLDTFSGFKVDIWSAGVTLYNITTGLYPFEGDNIYKLFENIGKGSYAIPGDCGPPLSDLLKGMLEYEPAKRFSIRQIRQHSWFRKKHPPAEAPVPIPPSPDTKDRWRSMTVVPYLEDLHGADEDEDLFDIEDDIIYTQDFTVPGQVPEEEASHNGQRRGLPKAVCMNGTEAAQLSTKSRAEGRAPNPARKACSASSKIRRLSACKQQ

Variants of: B1
Assay: STK11 functional score (HeLa growth suppression), rescaled enrichment; synonymous median = 1, nonsense median = 0 (normalised score)
Settings: with HeLa; variant type: missense
How it was run: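 The functional score takes the post/pre-selection log ratio, corrects it to wild type, rescales it to synonymous and nonsense medians, and merges it over codons and replicate transfections, with error from bootstrapping. Counts came from tiled gDNA amplicons sequenced on NextSeq (~2 million reads per tile). The libraries were POPCode codon-randomised, codon-optimised STK11 integrated by Bxb1 at an AAVS1 landing pad in HeLa, three regions with three transfections each.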

Variant | STK11 functional score
MEVVDPQQLGMFTEGELMSVGMDTFIHRIDSTEVIYQPRRKRAKLIGKYLMGDLLGEGSYGKVKEVLDSETLCRRAVKILKKKKLRRIPNGEANVKKEIQLLRRCRHKNVIQLVDVLYNEEKQKMYMVMEYCVCGMQEMLDSVPEKRFPVCQAHGYFCQLIDGLEYLHSQGIVHKDIKPGNLLLTTGGTLKISDLGVAEALHPFAADDTCRTSQGSPAFQPPEIANGLDTFSGFKVDIWSAGVTLYNITTGLYPFEGDNIYKLFENIGKGSYAIPGDCGPPLSDLLKGMLEYEPAKRFSIRQIRQHSWFRKKHPPAEAPVPIPPSPDTKDRWRSMTVVPYLEDLHGADEDEDLFDIEDDIIYTQDFTVPGQVPEEEASHNGQRRGLPKAVCMNGTEAAQLSTKSRAEGRAPNPARKACSASSKIRRLSACKQQ [L105C] | 1.53 ± 0.064
MEVVDPQQLGMFTEGELMSVGMDTFIHRIDSTEVIYQPRRKRAKLIGKYLMGDLLGEGSYGKVKEVLDSETLCRRAVKILKKKKLRRIPNGEANVKKEIQLLRRLRHKNVIQLVDVLYNEEKQKMYMVMEYCVCGMQEMLDSVPEKRFPVCQAHGYFCQLIDGLEYLHSQGIVHKDIKPGNLLLTTGGTLKISDLGVAEALHPFAADDTCRTSQGSPAFQPPEIANGLDTFSGFKVDIWSAGVTPYNITTGLYPFEGDNIYKLFENIGKGSYAIPGDCGPPLSDLLKGMLEYEPAKRFSIRQIRQHSWFRKKHPPAEAPVPIPPSPDTKDRWRSMTVVPYLEDLHGADEDEDLFDIEDDIIYTQDFTVPGQVPEEEASHNGQRRGLPKAVCMNGTEAAQLSTKSRAEGRAPNPARKACSASSKIRRLSACKQQ [L245P] | -0.14 ± 0.1
MEVVDPQQLGMFTEGELMSVGMDTFIHRIDSTEVIYQPRRKRAKLIGKYLMGDLLGEGSYGKVKEVLDSETLCRRAVKILKKKKLRRIPNGEANVKKEIQLLRRLRHKNVIQLVDVLYNEEKQKMYMVMEYCVCGMQEMLDSVPEKRFPVCQAHGYFCQLIDGLEYLHSQGIVHKDIKPGNLLLTTGGTLKIEDLGVAEALHPFAADDTCRTSQGSPAFQPPEIANGLDTFSGFKVDIWSAGVTLYNITTGLYPFEGDNIYKLFENIGKGSYAIPGDCGPPLSDLLKGMLEYEPAKRFSIRQIRQHSWFRKKHPPAEAPVPIPPSPDTKDRWRSMTVVPYLEDLHGADEDEDLFDIEDDIIYTQDFTVPGQVPEEEASHNGQRRGLPKAVCMNGTEAAQLSTKSRAEGRAPNPARKACSASSKIRRLSACKQQ [S193E] | 1.54 ± 0.33
MEVVDPQQLGMFTEGELMSVGMDTFIHRIDSTEVIYQPRRKRAKLIGKYLMGDLLGEGSYGKVKEVLDSETLCRRAVKILKKKKLRRIPNGEANVKKEIQLLRRLRHKNVIQLVDVLYNEEKQKMYMVMEYCVCGMQEMLDSVPEKRFPVCQAHGYFCQLIDGLEYLHSQGIVHKDIKPGNLLLTTGGTLKISDLGVAEALHPFAADDTCRTSQGSPAFQPPEIANGLDTFSGFKVDIWSAPVTLYNITTGLYPFEGDNIYKLFENIGKGSYAIPGDCGPPLSDLLKGMLEYEPAKRFSIRQIRQHSWFRKKHPPAEAPVPIPPSPDTKDRWRSMTVVPYLEDLHGADEDEDLFDIEDDIIYTQDFTVPGQVPEEEASHNGQRRGLPKAVCMNGTEAAQLSTKSRAEGRAPNPARKACSASSKIRRLSACKQQ [G242P] | 0.0217 ± 0.14
MEVVDPQQLGMFTEGELMSVGMDTFIHRIDSTEVIYQPRRKRAKLIGKYLMGDLLGEGSYGKVKEVLDSETLCRRAVKILKKKKLRRIPNGEANVKKEIQLLRRLRHKNVIQLVDVLYNEEKQKMYMVMEYCVCGMQEMLDSVPEKRFPVCQAHGYFCQLIDGLEYLHSQGIVHKDIKPGNLLLTTGGTLKISDLGVAEALHPFAADDTCRTSQGSPAFQPPEIANGLDTFSGFKVDIWSAGVTLYNITTGLYPFEGDNIYKLFENIGKGSYAIPGDCGPPLSDLLKGMLEYEPAKRFSIRQIRQHSWFRKKHPPAEAPVPIPPSPDTKDRWRSMTVVPYLEDLHGADEDEDLFDIEDDIIYTQDFTVPGQVPEEEASHNGQRRGLPKAVCMNGTEAAQLSTKSFAEGRAPNPARKACSASSKIRRLSACKQQ [R405F] | 1.59 ± 0.27
MEVVDPQQLGMFTEGELMSVGMDTFIHRIDSTEVIYQPRRKRAKLIGKYLMGDLLGEGSYGKVKEVLDSETLCRRAVKILKKKKLRRIPNGEANVKKEIQLLRRLRHKNVIQLVDVLYNEEKQKMYMVMEYCVCGMQEMLDSVPEKRFPVCQAHGYFCQLIDGLEYLHSQGIVHKDIKPGNLLLTTGGTLKISDLGVAEALHPFAADDTCRTSQGSPAFQPPEIANGLDTFSGFKVDIWSAGVTLYNITTGLYPFEGDNIYKLFENIGKGSYAIPGDCGPPLSDLLKGMLEYEAAKRFSIRQIRQHSWFRKKHPPAEAPVPIPPSPDTKDRWRSMTVVPYLEDLHGADEDEDLFDIEDDIIYTQDFTVPGQVPEEEASHNGQRRGLPKAVCMNGTEAAQLSTKSRAEGRAPNPARKACSASSKIRRLSACKQQ [P294A] | 1.39 ± 0.21
MEVVDPQQLGMFTEGELMSVGMDTFIHRIDSTEVIYQPRRKRAKLIGKYLMGDLLGEGSYGKVKEVLDSETLCRRAVKILKKKKLRRIPNGEANVKKEIQLLRRLRHKNVIQLVDVLYNEEKQKMYMVMEYCVCGMQEMLDSVPEKRFPVCQAHGYFCQLIDGLEYLHSQGIVHKDIKPGNLLLTTGGTLKISDLGVAEALHPFAADDTCRTSQGSPAFQPPKIANGLDTFSGFKVDIWSAGVTLYNITTGLYPFEGDNIYKLFENIGKGSYAIPGDCGPPLSDLLKGMLEYEPAKRFSIRQIRQHSWFRKKHPPAEAPVPIPPSPDTKDRWRSMTVVPYLEDLHGADEDEDLFDIEDDIIYTQDFTVPGQVPEEEASHNGQRRGLPKAVCMNGTEAAQLSTKSRAEGRAPNPARKACSASSKIRRLSACKQQ [E223K] | 0.308 ± 0.41
MEVVDPQQLGMFTEGELMSVGMDTFIHRIDSTEVIYTPRRKRAKLIGKYLMGDLLGEGSYGKVKEVLDSETLCRRAVKILKKKKLRRIPNGEANVKKEIQLLRRLRHKNVIQLVDVLYNEEKQKMYMVMEYCVCGMQEMLDSVPEKRFPVCQAHGYFCQLIDGLEYLHSQGIVHKDIKPGNLLLTTGGTLKISDLGVAEALHPFAADDTCRTSQGSPAFQPPEIANGLDTFSGFKVDIWSAGVTLYNITTGLYPFEGDNIYKLFENIGKGSYAIPGDCGPPLSDLLKGMLEYEPAKRFSIRQIRQHSWFRKKHPPAEAPVPIPPSPDTKDRWRSMTVVPYLEDLHGADEDEDLFDIEDDIIYTQDFTVPGQVPEEEASHNGQRRGLPKAVCMNGTEAAQLSTKSRAEGRAPNPARKACSASSKIRRLSACKQQ [Q37T] | 1.69 ± 0.12
MEVVDPQQLGMFTEGELMSVGMDTFIHRIDSTEVIYQPRRKRAYLIGKYLMGDLLGEGSYGKVKEVLDSETLCRRAVKILKKKKLRRIPNGEANVKKEIQLLRRLRHKNVIQLVDVLYNEEKQKMYMVMEYCVCGMQEMLDSVPEKRFPVCQAHGYFCQLIDGLEYLHSQGIVHKDIKPGNLLLTTGGTLKISDLGVAEALHPFAADDTCRTSQGSPAFQPPEIANGLDTFSGFKVDIWSAGVTLYNITTGLYPFEGDNIYKLFENIGKGSYAIPGDCGPPLSDLLKGMLEYEPAKRFSIRQIRQHSWFRKKHPPAEAPVPIPPSPDTKDRWRSMTVVPYLEDLHGADEDEDLFDIEDDIIYTQDFTVPGQVPEEEASHNGQRRGLPKAVCMNGTEAAQLSTKSRAEGRAPNPARKACSASSKIRRLSACKQQ [K44Y] | 1.46 ± 0.087
MEVVDPQQLGMFTEGELMSVGMDTFIHRIDSTEVIYQPRRKRAKLIGKYLMGDLLGEGSYGKVKEVLDSETLCRRAVKILKKKKLRRIPNGEANVKKEIQLLRRLRHKNVIQLVDVLYNEEKQKMYMVMEYCVMGMQEMLDSVPEKRFPVCQAHGYFCQLIDGLEYLHSQGIVHKDIKPGNLLLTTGGTLKISDLGVAEALHPFAADDTCRTSQGSPAFQPPEIANGLDTFSGFKVDIWSAGVTLYNITTGLYPFEGDNIYKLFENIGKGSYAIPGDCGPPLSDLLKGMLEYEPAKRFSIRQIRQHSWFRKKHPPAEAPVPIPPSPDTKDRWRSMTVVPYLEDLHGADEDEDLFDIEDDIIYTQDFTVPGQVPEEEASHNGQRRGLPKAVCMNGTEAAQLSTKSRAEGRAPNPARKACSASSKIRRLSACKQQ [C134M] | 0.248 ± 0.08
MEVVDPQQLGMFTEGELMSVGMDTFIHRIDSTEVIYQPRRKRAKLIGKYLMGDLLGEGSYGKVKEVLDSETLCRRAVKILKKKKLRRIPNGEANVKKEIQLLRRLRHKNVINLVDVLYNEEKQKMYMVMEYCVCGMQEMLDSVPEKRFPVCQAHGYFCQLIDGLEYLHSQGIVHKDIKPGNLLLTTGGTLKISDLGVAEALHPFAADDTCRTSQGSPAFQPPEIANGLDTFSGFKVDIWSAGVTLYNITTGLYPFEGDNIYKLFENIGKGSYAIPGDCGPPLSDLLKGMLEYEPAKRFSIRQIRQHSWFRKKHPPAEAPVPIPPSPDTKDRWRSMTVVPYLEDLHGADEDEDLFDIEDDIIYTQDFTVPGQVPEEEASHNGQRRGLPKAVCMNGTEAAQLSTKSRAEGRAPNPARKACSASSKIRRLSACKQQ [Q112N] | 1.55 ± 0.18
MEVVDPQQLGMFTEGELMSVGMDTFIHRIDSTEVIYQPRRKRAKLIGKYLMGDLLGEGSYGKVKEVLDSETLCRRAVKILKKKKLRRIPNGEANVKKEIQLLRRLRHKNVIQLVDVLYNEEKQKMYMVMEYCVCGMQEMLDSVPEKRFPVCQAHGYFCQLIDGLEYLHSQGIVHKDIKPGNLLLTTGGTLKISDLGVAEALHPFAADDTCRTSQGSPAFQPPEIANGLDTFSGFKVDIWSAGVTLYNITTGLYPFEGDNIYKLFENHGKGSYAIPGDCGPPLSDLLKGMLEYEPAKRFSIRQIRQHSWFRKKHPPAEAPVPIPPSPDTKDRWRSMTVVPYLEDLHGADEDEDLFDIEDDIIYTQDFTVPGQVPEEEASHNGQRRGLPKAVCMNGTEAAQLSTKSRAEGRAPNPARKACSASSKIRRLSACKQQ [I267H] | 1.45 ± 0.35
MEVVDPQQLGMFTEGELMSVGTDTFIHRIDSTEVIYQPRRKRAKLIGKYLMGDLLGEGSYGKVKEVLDSETLCRRAVKILKKKKLRRIPNGEANVKKEIQLLRRLRHKNVIQLVDVLYNEEKQKMYMVMEYCVCGMQEMLDSVPEKRFPVCQAHGYFCQLIDGLEYLHSQGIVHKDIKPGNLLLTTGGTLKISDLGVAEALHPFAADDTCRTSQGSPAFQPPEIANGLDTFSGFKVDIWSAGVTLYNITTGLYPFEGDNIYKLFENIGKGSYAIPGDCGPPLSDLLKGMLEYEPAKRFSIRQIRQHSWFRKKHPPAEAPVPIPPSPDTKDRWRSMTVVPYLEDLHGADEDEDLFDIEDDIIYTQDFTVPGQVPEEEASHNGQRRGLPKAVCMNGTEAAQLSTKSRAEGRAPNPARKACSASSKIRRLSACKQQ [M22T] | 1.63 ± 0.51
MEVVDPQQLGMFTEGELMSVGMDTFIHRIDSTEVIYQPRRKRAKLIGKYVMGDLLGEGSYGKVKEVLDSETLCRRAVKILKKKKLRRIPNGEANVKKEIQLLRRLRHKNVIQLVDVLYNEEKQKMYMVMEYCVCGMQEMLDSVPEKRFPVCQAHGYFCQLIDGLEYLHSQGIVHKDIKPGNLLLTTGGTLKISDLGVAEALHPFAADDTCRTSQGSPAFQPPEIANGLDTFSGFKVDIWSAGVTLYNITTGLYPFEGDNIYKLFENIGKGSYAIPGDCGPPLSDLLKGMLEYEPAKRFSIRQIRQHSWFRKKHPPAEAPVPIPPSPDTKDRWRSMTVVPYLEDLHGADEDEDLFDIEDDIIYTQDFTVPGQVPEEEASHNGQRRGLPKAVCMNGTEAAQLSTKSRAEGRAPNPARKACSASSKIRRLSACKQQ [L50V] | 0.846 ± 0.19
